The values that follow come from PMC11021425, “Salmonella manipulates macrophage migration via SteC-mediated myosin light chain activation to penetrate the gut-vascular barrier” (The EMBO Journal, 2024).

Data set [1] concerns the target T1, SteC FL (full-length SteC) (Salmonella enterica, UniProt D0ZIB5).
T1 construct: full-length (457 aa), expressed in E. coli BL21(DE3) from pGL01, Ni-NTA, His-tag removed by PPase, Superdex 200; dimeric catalysis inferred from the kinase domain structure
In words: Phos-tag gel kinase assay. Type of data set: biochemical. As to conditions: phosphate donor, 100 μM; acceptor murine Myl12a; 10 mM MgCl2/MnCl2, pH 7.5, 30 °C.

For data set [2], the target named is Myl12a, biotinylated (murine) (UniProt Q6ZWQ9). In words: BLI.
Data set [3] deals with Myl12a, biotinylated (UniProt Q6ZWQ9). In words: BLI.
The subject of data set [4] is Nc1nc2c(ncn2[C@@H]2O[C@H](COP(=O)(O)OP(=O)(O)OP(=O)(O)O)[C@@H](O)[C@H]2O)c(=O)[nH]1. In words: purified protein. The conditions noted are these: phosphate donor, acceptor murine Myl12a, 10 mM MnCl2, 25 mM Tris-HCl pH 7.5, 1 mM DTT, 30 °C, 30 min.
Data set [5] has as its system O=c1ccn([C@@H]2O[C@H](COP(=O)(O)OP(=O)(O)OP(=O)(O)O)[C@@H](O)[C@H]2O)c(=O)[nH]1. Briefly: purified protein. As to conditions: phosphate donor, acceptor murine Myl12a, 10 mM MnCl2, 25 mM Tris-HCl pH 7.5, 1 mM DTT, 30 °C, 30 min.
Data set [6] addresses T2, Myl12a, biotinylated (murine, UniProt Q6ZWQ9 1-172, biotin (EZ-Link biotin, MCR = 1:1)).
T2 chain: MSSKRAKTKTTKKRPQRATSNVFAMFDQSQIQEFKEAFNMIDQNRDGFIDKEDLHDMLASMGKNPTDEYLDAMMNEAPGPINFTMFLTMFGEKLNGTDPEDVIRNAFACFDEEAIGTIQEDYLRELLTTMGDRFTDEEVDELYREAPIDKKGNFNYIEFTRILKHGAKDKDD
Briefly: BLI.

T1 sequence (D0ZIB5 whole entry, the tested form may be a part): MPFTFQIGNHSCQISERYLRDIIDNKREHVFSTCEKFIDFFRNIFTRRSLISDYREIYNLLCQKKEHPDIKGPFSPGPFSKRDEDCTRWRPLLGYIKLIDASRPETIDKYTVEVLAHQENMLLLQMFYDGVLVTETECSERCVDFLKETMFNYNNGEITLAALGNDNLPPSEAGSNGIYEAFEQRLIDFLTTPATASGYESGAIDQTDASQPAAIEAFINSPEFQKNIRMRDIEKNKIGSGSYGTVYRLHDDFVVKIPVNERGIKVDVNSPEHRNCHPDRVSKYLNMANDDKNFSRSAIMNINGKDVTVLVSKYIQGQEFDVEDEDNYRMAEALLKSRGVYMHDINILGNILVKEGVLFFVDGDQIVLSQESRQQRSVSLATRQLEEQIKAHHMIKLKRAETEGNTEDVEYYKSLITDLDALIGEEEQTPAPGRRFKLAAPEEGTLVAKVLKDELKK

As for `Nc1ccn([C@@H]2O[C@H](COP(=O)(O)OP(=O)(O)OP(=O)(O)O)[C@@H](O)[C@H]2O)c(=O)n1` [CTP], the “Phos-tag gel kinase assay” value in data set [1] was “SteC can employ all four nucleotides (ATP, CTP, UTP, and GTP) for phosphorylation”.
Consider “SteC full-length protein (natural protein)”, for which the equilibrium dissociation constant (Kd) in data set [2] amounted to 1340 nM.
In data set [2], “SteC-C (194 aa–457 aa) (domain or fragment)” registered a Kd of 23300 nM. This Kd is about 17-fold higher than that of the molecule before.
As for Native SteC mut1, the Kd in data set [3] amounted to 1090 nM.
With “SteC FL (full-length SteC) (Salmonella enterica subsp. enterica serovar Typhimurium str. 14028S)”, the results for the Km in data set [4] and in data set [5] were 5.84 µM and 5.53 µM, respectively.
With Native SteC mut4, the Kd in data set [3] is 1110 nM.

B1: SteC 194 aa–364 aa (domain or fragment)
chain: ATASGYESGAIDQTDASQPAAIEAFINSPEFQKNIRMRDIEKNKIGSGSYGTVYRLHDDFVVKIPVNERGIKVDVNSPEHRNCHPDRVSKYLNMANDDKNFSRSAIMNINGKDVTVLVSKYIQGQEFDVEDEDNYRMAEALLKSRGVYMHDINILGNILVKEGVLFFVDGD
B1 had a dissociation constant Kd in data set [6] of 8830 nM.

B2: SteC 168 aa–364 aa fragment (domain or fragment)
chain: LPPSEAGSNGIYEAFEQRLIDFLTTPATASGYESGAIDQTDASQPAAIEAFINSPEFQKNIRMRDIEKNKIGSGSYGTVYRLHDDFVVKIPVNERGIKVDVNSPEHRNCHPDRVSKYLNMANDDKNFSRSAIMNINGKDVTVLVSKYIQGQEFDVEDEDNYRMAEALLKSRGVYMHDINILGNILVKEGVLFFVDGD
B2 displayed a Kd in data set [6] of 710 nM.
